Measurements from US20080160008.

Assays:
[1] = molecular target: protofibrillar Aβ1-42 (UniProt P05067)
[2] = molecular target: Aβ1-38 (UniProt P05067)
[3] = molecular target: high-molecular-weight (MW) Aβ assemblies (UniProt P05067)
[4] = molecular target: fibrillar Aβ1-42 (UniProt P05067)
[5] = molecular target: Aβ1-42 (fresh, nonaggregated synthetic peptide, rPeptide) (UniProt P05067)
[6] = molecular target: Aβ1-40 (UniProt P05067)
Chain of Aβ1-40 (P05067 whole entry, looked up, tested part not stated): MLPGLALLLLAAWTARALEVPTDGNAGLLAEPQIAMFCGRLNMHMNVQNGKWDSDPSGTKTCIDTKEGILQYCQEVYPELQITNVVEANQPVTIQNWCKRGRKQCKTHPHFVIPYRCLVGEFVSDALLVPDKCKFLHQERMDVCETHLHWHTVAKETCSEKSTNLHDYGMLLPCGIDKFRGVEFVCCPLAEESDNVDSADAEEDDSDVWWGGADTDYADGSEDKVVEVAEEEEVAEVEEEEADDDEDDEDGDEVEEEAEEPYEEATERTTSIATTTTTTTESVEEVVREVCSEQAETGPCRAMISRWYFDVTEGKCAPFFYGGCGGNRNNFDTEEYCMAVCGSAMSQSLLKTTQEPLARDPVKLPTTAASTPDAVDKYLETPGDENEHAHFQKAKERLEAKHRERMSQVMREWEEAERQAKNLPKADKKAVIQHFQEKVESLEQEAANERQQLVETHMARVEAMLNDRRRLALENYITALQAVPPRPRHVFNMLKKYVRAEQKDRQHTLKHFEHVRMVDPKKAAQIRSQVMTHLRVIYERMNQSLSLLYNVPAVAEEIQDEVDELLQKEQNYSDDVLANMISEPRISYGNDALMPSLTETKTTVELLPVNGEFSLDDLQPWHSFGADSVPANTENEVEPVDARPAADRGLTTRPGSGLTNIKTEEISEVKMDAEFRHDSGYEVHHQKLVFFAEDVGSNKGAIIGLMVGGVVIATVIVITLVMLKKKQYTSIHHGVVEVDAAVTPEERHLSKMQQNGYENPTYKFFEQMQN

Chain of Aβ1-42 (fresh, nonaggregated synthetic peptide, rPeptide) (P05067 whole entry, looked up, tested part not stated): as above
Chain of fibrillar Aβ1-42 (P05067 whole entry, looked up, tested part not stated): as above
Chain of protofibrillar Aβ1-42 (P05067 whole entry, looked up, tested part not stated): as above
Chain of Aβ1-38 (P05067 whole entry, looked up, tested part not stated): as above
Chain of high-molecular-weight (MW) Aβ assemblies (P05067 whole entry, looked up): as the sequence (P05067 whole entry, looked up, tested part not stated) above

Substance: purified CatB from human liver (Sigma)
- SELDI-TOF mass spectrometry of cleavage at pH 6.0 [1]: at pH 6.0, were cleaved by CatB as efficiently as nonaggregated preparations, resulting in the same C-terminally-truncated peptides, Aβ1-40, Aβ1-38, and Aβ1-33
- SELDI-TOF mass spectrometry of cleavage at pH 7.0 [1]: protofibrillar/nonfibrillar Aβ oligomers and fibrillar Aβ1-42 preparations were cleaved by CatB even at neutral pH, resulting in the same truncated Aβ species observed at pH 6.0
- proteolytic products analyzed with SELDI-TOF mass spectrometry [2]: even when Aβ1-40 was almost completely converted to Aβ1-38, no Aβ1-36 was generated from Aβ1-38
- western blot of Tricine SDS-PAGE gels [3]: Incubation of CatB induced a marked decrease in the amounts of high-molecular-weight (MW) Aβ assemblies
- SELDI-TOF mass spectrometry of cleavage at pH 7.0 [4]: protofibrillar/nonfibrillar Aβ oligomers and fibrillar Aβ1-42 preparations were cleaved by CatB even at neutral pH, resulting in the same truncated Aβ species observed at pH 6.0
- amount of fibrillar structures by electron microscopy [4]: incubation of fibrillar Aβ1-42 with CatB did reduce the amount of fibrillar structures
- SELDI-TOF mass spectrometry of cleavage at pH 7.0 [5]: At neutral pH (˜7.0), the ability of CatB to cleave Aβ, especially nonaggregated (fresh) Aβ, was markedly reduced
- proteolytic products analyzed with SELDI-TOF mass spectrometry [5]: Incubating Aβ1-42 with CatB resulted in the dose-dependent generation of Aβ1-40, Aβ1-38, and Aβ1-33 through proteolytic cleavage at Val40-Ile41, Gly38-Gly39, and Gly33-Leu34
- western blot analysis of acid-urea gels [5]: The dose-dependent cleavage of Aβ1-42 was confirmed by western blot analysis of acid-urea gels
- western blot of Tricine SDS-PAGE gels [5]: Levels of low-MW Aβ1-42 oligomers and monomers, detected with an antibody specific for Aβ1-42, were also reduced
- proteolytic products analyzed with SELDI-TOF mass spectrometry [6]: Levels of Aβ1-40 were increased initially at lower doses (100-400 ng/ml), but decreased at higher doses (0.4-2.5 µg/ml)
